Numbering of substitutions follows the chain as printed.
What was measured:
[1] = target: T1, hu-IL-36β (human IL-36β, N-terminally truncated active form R5-E157) (human); assay: cell-based or functional assay
T1 chain: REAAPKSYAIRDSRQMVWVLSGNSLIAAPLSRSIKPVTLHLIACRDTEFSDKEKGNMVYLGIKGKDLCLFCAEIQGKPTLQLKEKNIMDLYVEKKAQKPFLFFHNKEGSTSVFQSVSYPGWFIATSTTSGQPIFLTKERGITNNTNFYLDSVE

[2] = target: T1, hu-IL-36β (human IL-36β, N-terminally …); assay: SPR (Biacore 8K), biotinylated hu-IL-36β captured on CAP chip, Fab injected, 37°C
Description: (§1) Briefly, a 1:4 dilution of Biotin CAPture Reagent (GE) into HBS-EP buffer (0.01 M HEPES pH 7.4, 0.15 M NaCl, 3 mM EDTA, 0.005% Surfactant P20) was applied to a CAP sensor chip at 2 uL/min flow rate. For kinetics measurements, 6 nM biotinylated human IL-36β was captured at 10 uL/min to achieve ˜50 response units in the second flow cell (FC2). FC1 was kept as a reference. […] The sensorgram was recorded and subject to reference and buffer subtraction before evaluating by BIACORE® 8K Evaluation Software (version 1.1.1.7442). Association rates (kₒₙ) and dissociation rates (koff) were calculated using a simple one-to-one Langmuir binding model.

[3] = target: T2, hu-IL-36α (human IL-36α, N-terminally truncated active form K6-F158) (human, UniProt Q9UHA7 6-158); assay: cell-based or functional assay
T2 sequence: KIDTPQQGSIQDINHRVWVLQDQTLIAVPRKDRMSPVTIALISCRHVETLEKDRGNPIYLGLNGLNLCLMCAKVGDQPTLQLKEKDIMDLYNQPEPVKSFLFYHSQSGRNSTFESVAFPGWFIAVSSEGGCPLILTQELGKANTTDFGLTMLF

[4] = target: T3, hu-IL-36γ (human IL-36γ, N-terminally truncated active form S18-D169) (human, UniProt Q9NZH8 18-169); assay: cell-based or functional assay
T3 sequence: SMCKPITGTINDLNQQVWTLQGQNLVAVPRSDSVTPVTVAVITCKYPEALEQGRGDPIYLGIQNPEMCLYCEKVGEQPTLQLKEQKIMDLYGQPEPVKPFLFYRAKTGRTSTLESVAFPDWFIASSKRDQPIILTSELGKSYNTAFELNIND

[5] = target: T2, hu-IL-36α (human IL-36α, N-terminally …); assay: phage competition ELISA: Fab on phage, soluble hu-IL-36α titrated against coated hu-IL-36α
Description: (§2) Selected phages with top binding signal were purified to perform phage competition ELISA. The optimal phage concentration was incubated with serially-diluted human IL-36α or human IL-36γ in ELISA buffer in NUNC F plate for two hours. 80 μL of the mixture was transferred to human IL-36α or human IL-36γ coated wells for 15 min to capture unbound phage. The plate was washed with wash buffer (0.05% TWEEN®20 in PBS), and HRP-conjugated anti-M13 antibody (Sino biological, Cat #11973-MM05-H-50) was added in ELISA buffer for 30 min. The plates were washed and developed as described above. The absorbance at 450 nm was plotted as a function of antigen concentration in solution to determine phage IC50.

[6] = target: T3, hu-IL-36γ (human IL-36γ, N-terminally …); assay: phage competition ELISA: Fab on phage, soluble hu-IL-36γ titrated against coated hu-IL-36γ
Description: as §2

[7] = target: T2, hu-IL-36α (human IL-36α, N-terminally …); assay: SPR (Biacore 8K), biotinylated hu-IL-36 captured on CAP chip, Fab injected, 37°C
Description: as §1, with “3” for “6”, “IL-36α and human IL-36γ” for “IL-36β”

[8] = target: T3, hu-IL-36γ (human IL-36γ, N-terminally …); assay: as above
Description: as §1, with “3” for “6”, “IL-36α and human IL-36γ” for “IL-36β”

B1: mAb6_2.5 Fab (Fab, V domains shown)
VH: ELQLQESGPGLVKPSETLSLTCTVSGGSITASNYYWGWIRQPPGKGLEWIGSIDYTGSTYYEPSLKSRVTISVDTSKNQFSLKLSSVTAADTAVYYCATGSYYETYLGFDVWGQGTLVTVSS
VL: ESVLTQPPSVSGAPGQRVTISCTGSSSNIGAHYDVHWYQQLPGTAPKLLIYGNDNRPSGVPDRFSGSKSGTSASLAITGLQAEDEADYYCQSYDYSLSGYVFGGGTKLTVL
notes: Recombinant Fab with 8xHis tag (Expi293F)
IC50, IL-36-stimulated IL-8 secretion by HaCat cells [1]: 0.2 nM
Kd [2]: 0.66 nM
koff [2]: 0.000476 s⁻¹
kon [2]: 717000 M⁻¹ s⁻¹

B2: mAb6_2.6 Fab (Fab, V domains shown)
VH: B1 VH with S101N
VL: B1 VL
notes: as for B1
Kd [2]: 0.82 nM
koff [2]: 0.000705 s⁻¹
kon [2]: 856000 M⁻¹ s⁻¹

B3: mAb6_2.7 Fab (Fab, V domains shown)
VH: B1 VH with Y34T, E62N, S101K
VL: B1 VL
notes: as for B1
IC50, IL-36-stimulated IL-8 secretion by HaCat cells [1]: 0.2 nM
Kd [2]: 0.61 nM
koff [2]: 0.00018 s⁻¹
kon [2]: 297000 M⁻¹ s⁻¹

B4: mAb6_2.8 Fab (Fab, V domains shown)
VH: B1 VH with E62N, T99S, S101K
VL: B1 VL
notes: as for B1
IC50, IL-36-stimulated IL-8 secretion by HaCat cells [1]: 0.33 nM
Kd [2]: 1.08 nM
koff [2]: 0.000343 s⁻¹
kon [2]: 317000 M⁻¹ s⁻¹

B5: mAb6_2.9 Fab (Fab, V domains shown)
VH: B1 VH with A31S, E62N, S101K
VL: B1 VL
notes: as for B1
Kd [2]: 1.37 nM
koff [2]: 0.000411 s⁻¹
kon [2]: 299000 M⁻¹ s⁻¹

B6: mAb6_2.10 Fab (Fab, V domains shown)
VH: B1 VH with A31S, E62Q, T99R, S101N
VL: B1 VL
notes: as for B1
Kd [2]: 2.47 nM
koff [2]: 0.00103 s⁻¹
kon [2]: 415000 M⁻¹ s⁻¹

B7: mAb1.0 recombinant human IgG1 (antibody, V domains shown)
VH: QVQLVESGGGVVQPGRSLRLSCAASGFSFSAYAMHWVRQAPGKGLEWVAVISYDGTNEYYADSVKGRFTISRDNSKNTLYLQMNSLRAEDTAVYYCARGIRIFTSYFDSWGQGTLVTVSS
VL: B1 VL with E1Q, G52S, D54N, S98R
IC50, HEK-Blue IL-36R SEAP reporter assay [3]: 43 nM
IC50, HEK-Blue IL-36R SEAP reporter assay [4]: 5.3 nM

B8: mAb3.0 recombinant human IgG1 (antibody, V domains shown)
VH: QLQLQESGPGLVKPSETLSLTCTVSGGSISSTSYYWGWIRQPPGKGLEWIGSIHYSGNTYYNPSLKSRVTISVDTSKNQFSLKLSSVTAADTAVYYCARVHYGGYIPRRFDHWGQGTLVTVSS
VL: B1 VL with E1Q, H32G, D54T, S98R
IC50, HEK-Blue IL-36R SEAP reporter assay [3]: 90 nM
IC50, HEK-Blue IL-36R SEAP reporter assay [4]: 30 nM

B9: mAb4.0 recombinant human IgG1 (antibody, V domains shown)
VH: QLQLQESGPGLVKPSETLSLTCTVSGGSIGSRSYYWGWIRQPPGKGLEWIGSIHYSGTTYYNPSLKSRVTISVDTSKNQFSLKLSSVTAADTAVYYCARVAPSYPRVFDYWGQGTLVTVSS
VL: B1 VL with E1Q, H32G, D54R, S98R, G99V
IC50, HEK-Blue IL-36R SEAP reporter assay [3]: 16 nM
IC50, HEK-Blue IL-36R SEAP reporter assay [4]: 52 nM

B10: mAb5.0 recombinant human IgG1 (antibody, V domains shown)
VH: EVQLLESGGGLVQPGGSLRLSCAASGFTFSTYAMSWVRQAPGKGLEWVSGISGGSGYTYYADSVKGRFTISRDNSKNTLYLQMNSLRAEDTAVYYCARVVTYRDPPASFDYWGQGTLVTVSS
VL: B1 VL with E1Q, S98K, G99A
IC50, HEK-Blue IL-36R SEAP reporter assay [3]: 95 nM
IC50, HEK-Blue IL-36R SEAP reporter assay [4]: 142 nM

B11: mAb2.1 Fab (phage-displayed) (Fab, V domains shown)
VH: ELQLQESGPGLVKPSETLSLTCTVSGGSISDSSYYWGWIRQPPGKGLEWIGSIYYTGNTYYNSSLKSRVTISVDTSKNQFSLKLSSVTAADTAVYYCARVRYGVGVPRYFDPWGQGTLVTVSS
VL: B1 VL
IC50 [5]: 1.03 nM
IC50 [6]: 4.86 nM

B12: mAb2.2 Fab (phage-displayed) (Fab, V domains shown)
VH: B11 VH with D31E, S63P, R99G
VL: B1 VL
IC50 [5]: 0.75 nM
IC50 [6]: 3.79 nM

B13: mAb2.3 Fab (phage-displayed) (Fab, V domains shown)
VH: B11 VH with D31T, Y34D, N62L, S63P, A98S
VL: B1 VL
IC50 [5]: 0.82 nM
IC50 [6]: 2.39 nM

B14: mAb2.4 Fab (phage-displayed) (Fab, V domains shown)
VH: B11 VH with D31N, N62L, S63P
VL: B1 VL
IC50 [5]: 0.68 nM
IC50 [6]: 1.52 nM

B15: mAb2.5 Fab (phage-displayed) (Fab, V domains shown)
VH: B11 VH with D31E, N62L, S63P
VL: B1 VL
IC50 [5]: 0.77 nM
IC50 [6]: 1.88 nM

B16: mAb2.6 Fab (phage-displayed) (Fab, V domains shown)
VH: B11 VH with D31T, Y35H, N62M, S63P, A98V
VL: B1 VL
IC50 [5]: 1.62 nM
IC50 [6]: 1.99 nM

B17: mAb2.7 Fab (phage-displayed) (Fab, V domains shown)
VH: B11 VH with D31R, N62W, S63P, A98T
VL: B1 VL
IC50 [5]: 1.2 nM
IC50 [6]: 1.53 nM

B18: mAb2.8 Fab (Fab, V domains shown)
VH: B11 VH with N58E, N62A, S63P, V100L
VL: B1 VL
notes: as for B1
Kd [7]: 0.14 nM
koff [7]: 0.000254 s⁻¹
kon [7]: 1.83e+06 M⁻¹ s⁻¹
Kd [8]: 0.17 nM
koff [8]: 0.000301 s⁻¹
kon [8]: 1.8e+06 M⁻¹ s⁻¹

B19: mAb2.9 Fab (Fab, V domains shown)
VH: B11 VH with N58E, N62A, S63P, R101K
VL: B1 VL
notes: as for B1
Kd [7]: 0.12 nM
koff [7]: 0.00026 s⁻¹
kon [7]: 2.19e+06 M⁻¹ s⁻¹
Kd [8]: 0.24 nM
koff [8]: 0.000565 s⁻¹
kon [8]: 2.4e+06 M⁻¹ s⁻¹

B20: mAb2.12 Fab (Fab, V domains shown)
VH: B11 VH with D31E, N58E, N62A, S63P, R101K
VL: B1 VL
notes: as for B1
Kd [7]: 0.16 nM
koff [7]: 0.000277 s⁻¹
kon [7]: 1.7e+06 M⁻¹ s⁻¹
Kd [8]: 0.28 nM
koff [8]: 0.000503 s⁻¹
kon [8]: 1.81e+06 M⁻¹ s⁻¹

B21: mAb6 Fab (Fab, V domains shown)
VH: B1 VH with A31S, E62N, T99R, S101K
VL: B1 VL with H32G, D54T, Y95I, Y100W
IC50, IL-36-stimulated IL-8 secretion by HaCat cells [1]: 0.15 nM

Source: patent US20230235040A1 (ALMIRALL S A, published 2023)
